Consider one molecule from US20210188916A1 (INDUSTRY UNIVERSITY COOPERATION FOUNDATION HANYANG …, published 2021).

Test [1] deals with T1, ATP5C1 (endogenous, HCT116 human colon cancer cells) (human, UniProt P36542 26-298).
T1 construct: Endogenous protein in cell or tumor lysates
T1 sequence: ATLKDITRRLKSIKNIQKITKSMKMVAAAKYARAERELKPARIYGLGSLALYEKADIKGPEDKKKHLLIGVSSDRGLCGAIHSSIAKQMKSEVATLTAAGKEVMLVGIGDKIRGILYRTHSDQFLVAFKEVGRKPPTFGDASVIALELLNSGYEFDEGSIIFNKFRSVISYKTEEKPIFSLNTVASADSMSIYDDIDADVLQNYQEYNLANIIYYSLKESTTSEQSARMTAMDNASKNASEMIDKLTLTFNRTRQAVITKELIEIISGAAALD
Put plainly: interaction analysis by immunoblot in HCT116 xenograft tumor lysates of treated mice (FIG. 6A, bottom).

Test [2] concerns the target T2, ATP5A1 (endogenous, HCT116 human colon cancer cells) (human, UniProt P25705 44-553).
T2 construct: Endogenous protein in cell or tumor lysates
The test is described as above.

T2 sequence (P25705 44-553 limits assumed): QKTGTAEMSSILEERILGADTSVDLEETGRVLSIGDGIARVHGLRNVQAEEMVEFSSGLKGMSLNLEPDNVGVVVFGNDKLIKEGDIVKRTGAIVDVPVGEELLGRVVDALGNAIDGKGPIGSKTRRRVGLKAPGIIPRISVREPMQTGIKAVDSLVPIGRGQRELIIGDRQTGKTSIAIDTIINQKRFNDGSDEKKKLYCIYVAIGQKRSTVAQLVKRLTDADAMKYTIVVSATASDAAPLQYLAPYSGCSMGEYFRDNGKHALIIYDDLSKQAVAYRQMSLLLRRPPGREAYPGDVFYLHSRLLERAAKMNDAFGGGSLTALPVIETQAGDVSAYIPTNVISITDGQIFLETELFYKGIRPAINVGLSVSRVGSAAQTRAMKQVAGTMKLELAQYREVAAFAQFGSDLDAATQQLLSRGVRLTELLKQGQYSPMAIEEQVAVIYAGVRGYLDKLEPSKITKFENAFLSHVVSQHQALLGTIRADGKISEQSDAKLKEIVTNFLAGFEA

B1: rATRAM-GRA8-M/AS (6x His-tagged ATRAM-conjugated multifunctional GRA8 peptide) (peptide)
chain: GLAGLAGLLGLEGLLGLPLGLLEGLWLGLELEGNGLAGLAGLLGLEGLLGLPLGLLEGLWLGLELEGNGGATATTTTTTRGGYRFTVQTTQN
notes: also called rATRAM-G8-M/AS; 6x His-rATRAM-GRA8-M/AS; not shown: N-terminal 6x His tag from the pRSFDuet-1 vector
On to B1, for which the binding result in test [1] and in test [2] was “binds” each time.
